Assay results as given in publication PMC12548415 (2025).

Columns and labels:
[1] = molecular target: wild-type raccoon dog parvovirus strain RDPV/CL/2016, capsid of VP2 (raccoon dog parvovirus, strain …); assay: BLI
[2] = molecular target: wild-type raccoon dog parvovirus strain RDPV/FLD/2010, capsid of VP2 (raccoon dog parvovirus, strain …); assay: BLI

B1: raccoon dog transferrin receptor ectodomain (recombinant RDTfR, from residue 121, C-terminal 6x His) (receptor)
chain: EEYFPETPSRLFWTDLKTMLSERLSNTDFTNTMRWLNENSYVPREAGSQKDESLALLIENRFREFQLSKSWRDEHFVKIQVKSSNAQNTVTIVGTESGLVYLVENPEGYVAYSKATTVTGRLVHVNFGTKKDFENLKSPVNGSLVIARAGKITFAEKVANAQSYNALGVLIYMDQARFPIVNAQIPFFGHAHLGTGDPYTPGFPSFNHTQFPPSQSSGLPSIPVQTIPRAVAEKLFENMEGDCPSAWEIDPSCRLETSPNKNVKLTVNNVLKEIRIFNIFGVIKGFEEPDRYVVIGAQRDAWGPGAAKSSVGTALLLELARIFSDMVLKGGFKPSRSIVFASWSAGDFGAIGATEWLEGYLSSLHLKAFTYINLDKAILGTSNFKVSASPLLYSLLEKTMKDVKHPITGQSLYRDSNWINKVEKWSLDNAAFPFLAYSGIPAVSFCFCEDTDYPYLGTTMDLYENLNQKIPQLNKMARGAAEVAGQLIIKLTYDLELNLNYEMYNDKILSFVRDMNQFRTDLKEMGLNLQWLYSARGDFFRATSRLTTDYKNAERTNRFVMREINDRIMKVEHNFLSPYVSPRDSPFRHIFWGSGSHTLPALVEHLKLRQKNNSAFNETLLRNQLALATWTIQGAANALSGDIWDIDNEL
koff [1]: 0.00441 s⁻¹ | koff [2]: 0.0126 s⁻¹
